Data reported in US20240301071A1 (Alector, published 2024).
Changes are numbered by the printed parent chain. Values belong to the binder of their own block, whether it stands above or below them.

Assays:
[1] = molecular target: human SIRPA Q281A (V5-tagged library clone on HEK-293T cells) (human, UniProt P78324 31-504); experiment: flow cytometry of Fab on HEK-293T cells expressing the mutant, normalised to wild-type SIRPA
Description: (§1) Epitope mapping of anti-SIRPA antibodies was performed using an alanine-scanning library created by shotgun mutagenesis of the human SIRPA cDNA sequence. […] Each of the residues representing the SIRPA extracellular domain (amino acids 31-374 of SEQ ID NO:1) was mutated, most to alanine, while alanine codons were mutated to serine.
(§2) The SIRPA mutant library clones, arrayed in a 384-well microplate, were transfected individually into HEK-293T cells and allowed to express for 22 hours. Antibodies were digested to generate Fabs, after which cells were incubated with Fabs diluted in 10% normal goat serum (NGS) (Sigma-Aldrich, St. Louis, MO). Prior to library screening, primary Fab concentrations were determined using an independent immunofluorescence titration curve against cells expressing wild type SIRPA to ensure that signals were within the linear range of detection. Fabs were detected using 7.5 μg/ml AlexaFluor488-conjugated secondary antibody (Jackson ImmunoResearch Laboratories, Westgrove, PA) in 10% NGS. Cells were washed twice with PBS and resuspended in Cellstripper (Cellgro, Manassas, VA) with 0.1% BSA (Sigma-Aldrich, St. Louis, MO). In some cases, higher stringency conditions were used, including increased pH, increased temperature, and increased dissociation time. Mean cellular fluorescence was detected using the Intellicyt high throughput flow cytometer (HTFC, Intellicyt, Albuquerque, NM). Fab reactivities against each mutant clone were calculated relative to wild-type SIRPA protein reactivity by subtracting the signal from mock-transfected controls, and normalizing to the signal from wild-type SIRPA transfected controls.

[2] = molecular target: human SIRPA R282A (V5-tagged library clone on HEK-293T cells) (human, UniProt P78324 31-504); experiment: as above
Sequence of human SIRPA R282A (V5-tagged library clone on HEK-293T cells) (P78324 31-504 R282A): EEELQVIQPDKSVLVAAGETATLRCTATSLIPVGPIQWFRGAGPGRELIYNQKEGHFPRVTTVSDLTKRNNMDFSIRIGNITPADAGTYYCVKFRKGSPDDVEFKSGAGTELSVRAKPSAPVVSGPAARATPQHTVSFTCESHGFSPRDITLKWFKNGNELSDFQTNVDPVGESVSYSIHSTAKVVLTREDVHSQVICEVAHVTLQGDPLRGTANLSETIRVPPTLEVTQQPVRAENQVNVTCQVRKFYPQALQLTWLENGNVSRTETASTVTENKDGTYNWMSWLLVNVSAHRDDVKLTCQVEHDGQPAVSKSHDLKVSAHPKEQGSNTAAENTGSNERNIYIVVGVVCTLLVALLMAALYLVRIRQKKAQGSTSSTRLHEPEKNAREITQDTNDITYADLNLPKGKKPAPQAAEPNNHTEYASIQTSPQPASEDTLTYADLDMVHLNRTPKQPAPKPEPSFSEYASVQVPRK
Description: as §1, §2

[3] = molecular target: human SIRPA Q284A (V5-tagged library clone on HEK-293T cells) (human, UniProt P78324 31-504); experiment: as above
Sequence of human SIRPA Q284A (V5-tagged library clone on HEK-293T cells) (P78324 31-504 Q284A): as the sequence (P78324 31-504 R282A) above, with A252R, Q254A counted along it
Description: as §1, §2

[4] = molecular target: human SIRPA L285A (V5-tagged library clone on HEK-293T cells) (human, UniProt P78324 31-504); experiment: as above
Sequence of human SIRPA L285A (V5-tagged library clone on HEK-293T cells) (P78324 31-504 L285A): as the sequence (P78324 31-504 R282A) above, with A252R, L255A counted along it
Description: as §1, §2

[5] = molecular target: human SIRPA W287A (V5-tagged library clone on HEK-293T cells) (human, UniProt P78324 31-504); experiment: as above
Sequence of human SIRPA W287A (V5-tagged library clone on HEK-293T cells) (P78324 31-504 W287A): as the sequence (P78324 31-504 R282A) above, with A252R, W257A counted along it
Description: as §1, §2

[6] = molecular target: human SIRPA R295A (V5-tagged library clone on HEK-293T cells) (human, UniProt P78324 31-504); experiment: as above
Sequence of human SIRPA R295A (V5-tagged library clone on HEK-293T cells) (P78324 31-504 R295A): as the sequence (P78324 31-504 R282A) above, with A252R, R265A counted along it
Description: as §1, §2

[7] = molecular target: human SIRPA E297A (V5-tagged library clone on HEK-293T cells) (human, UniProt P78324 31-504); experiment: as above
Sequence of human SIRPA E297A (V5-tagged library clone on HEK-293T cells) (P78324 31-504 E297A): as the sequence (P78324 31-504 R282A) above, with A252R, E267A counted along it
Description: as §1, §2

[8] = molecular target: human SIRPA V302A (V5-tagged library clone on HEK-293T cells) (human, UniProt P78324 31-504); experiment: as above
Sequence of human SIRPA V302A (V5-tagged library clone on HEK-293T cells) (P78324 31-504 V302A): as the sequence (P78324 31-504 R282A) above, with A252R, V272A counted along it
Description: as §1, §2

[9] = molecular target: human SIRPA W315A (V5-tagged library clone on HEK-293T cells) (human, UniProt P78324 31-504); experiment: as above
Sequence of human SIRPA W315A (V5-tagged library clone on HEK-293T cells) (P78324 31-504 W315A): as the sequence (P78324 31-504 R282A) above, with A252R, W285A counted along it
Description: as §1, §2

[10] = molecular target: human SIRPA G337A (V5-tagged library clone on HEK-293T cells) (human, UniProt P78324 31-504); experiment: as above
Sequence of human SIRPA G337A (V5-tagged library clone on HEK-293T cells) (P78324 31-504 G337A): as the sequence (P78324 31-504 R282A) above, with A252R, G307A counted along it
Description: as §1, §2

[11] = molecular target: T1, human SIRPA on human macrophages (primary monocyte-derived macrophages; U937 line) (human, UniProt P78324 31-504); experiment: cell-based or functional assay
T1 sequence (P78324 31-370): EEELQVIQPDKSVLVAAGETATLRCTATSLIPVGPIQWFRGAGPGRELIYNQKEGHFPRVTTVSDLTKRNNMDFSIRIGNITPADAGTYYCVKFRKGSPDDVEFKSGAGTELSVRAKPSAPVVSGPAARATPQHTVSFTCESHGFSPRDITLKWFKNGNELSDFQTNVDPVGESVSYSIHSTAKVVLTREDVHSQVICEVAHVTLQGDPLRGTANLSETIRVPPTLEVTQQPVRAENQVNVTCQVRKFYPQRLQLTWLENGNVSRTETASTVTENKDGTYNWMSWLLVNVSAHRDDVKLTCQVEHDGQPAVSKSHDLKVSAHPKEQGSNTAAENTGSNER

[12] = molecular target: T2, human SIRPA v1 on BWZ cells (BWZ-huSIRPA) (human, UniProt P78324 31-504); experiment: flow cytometry titration on BWZ cells overexpressing huSIRPA, 4 C
T2 construct: also called BWZ cells overexpressing human SIRPA; BWZ-huSIRPA v1 cells
T2 sequence (P78324 31-504): as the sequence (P78324 31-504 R282A) above, with A252R counted along it
Description: Receptor bound antibodies were detected by staining cells with anti-mouse IgG Fc APC or anti-human IgG PE secondary antibody. Serial dilutions of the monoclonal antibodies were added to 10⁵ BWZ cells overexpressing huSIRPA (BWZ-huSIRPA) and allowed to achieve binding equilibrium at 4° C. After addition of fluorescently labeled secondary antibody and brief washing steps, mean fluorescent intensity (MFI) values as a function of titrated antibody concentration was recorded via FACS analysis. Curves were fit using nonlinear regression analysis with Graphpad Prism 6 software.

[13] = molecular target: T2, human SIRPA v1 on BWZ cells …; experiment: flow cytometry competition on BWZ-huSIRPA v1 cells, competitor: fluorophore-labelled reference m3F9
Description: IC50 values provide another comparison of relative affinity.

[14] = molecular target: T3, histidine-tagged human SIRPA (Sino Biological) (human, UniProt P78324 31-370); experiment: BLI (Octet RED96), antibody captured on anti-human IgG Fc sensor, His-tagged SIRPA in solution, 1:1 model
T3 construct: bought, soluble; also called histidine-tagged huSIRPA isoform 1; soluble SIRPA antigen; not shown: histidine tag
T3 sequence (P78324 31-370 limits assumed): as the sequence (P78324 31-370) above
Description: Affinity measurements for the anti-SIRPA antibodies were performed as follows. Bio-layer interferometry (BLI) data were collected on a Pall ForteBio Octet RED96 instrument. Data analysis was performed using ForteBio Data Analysis Software, version 9.0. Standard kinetic buffer (PBS, 0.100 BSA, 0.02% Tween-20, pH 7.2) was used for the assay and for preparing reagents. […] Varying concentrations (0-200 nM) of histidine-tagged human SIRPA (Sino Biological, Beijing, China) were then bound to the captured anti-SIRPA surface (300 s association time, 600 s dissociation time). The resulting BLI signal was obtained as the difference in response from the reference (2.5 μg/mL IgG+0 nM SIRPA) sensor. […] Multi-concentration kinetic analysis was performed using a 1:1 interaction model to extract association and dissociation rate constants (ka and kd, respectively) for each antibody. Binding affinity constants (KD) were calculated from the ratio kd/ka.
Best-fit traces from the resulting sensorgrams were analyzed to calculate association rate, dissociation rate, and affinity values.

[15] = molecular target: T1, human SIRPA on human macrophages …; experiment: cell-based or functional assay; remark: listed apart in the source
[16] = molecular target: T1, human SIRPA on human macrophages …; experiment: cell-based or functional assay; remark: listed apart in the source
[17] = molecular target: T4, soluble human FcgR3A F158 (human, UniProt P08637 17-208); experiment: BLI (Octet RED96), antibody captured by anti-human Fab-CH1, soluble human FcR
T4 construct: also called CD16A F158
T4 sequence (P08637 17-208 limits assumed): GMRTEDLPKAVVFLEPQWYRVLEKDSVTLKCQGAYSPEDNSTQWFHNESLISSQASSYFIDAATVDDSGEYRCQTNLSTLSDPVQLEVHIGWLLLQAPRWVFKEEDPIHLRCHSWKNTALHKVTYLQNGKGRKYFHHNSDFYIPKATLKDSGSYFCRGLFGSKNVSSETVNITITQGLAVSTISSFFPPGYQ
Description: (§3) FcR affinity measurements for anti-SIRPA antibody Fc variants were obtained using bio-layer interferometry (BLI) on a Pall ForteBio Octet RED96 instrument. […] Single cycle kinetics were performed with 100 nM of soluble human FcRs flowed over captured antibody to record traces (300 s association time, 300 s dissociation time). Data analysis was performed using ForteBio Data Analysis Software, version 9.0. Standard kinetic buffer (PBS, 0.1% BSA, 0.02% Tween-20, pH 7.2) was used for the assay and for preparing reagents.

[18] = molecular target: T5, soluble human FcgR3A V158 (human, UniProt P08637 17-208); experiment: as above
T5 construct: also called CD16A V158
T5 sequence (P08637 17-208 F176V limits assumed): as the sequence (P08637 17-208 limits assumed) above, with F160V counted along it
Description: as §3

soluble human FcgR1 = molecular target: T6, soluble human FcgR1 (human, UniProt P12314 16-288); experiment: BLI (Octet RED96), antibody captured by anti-human Fab-CH1, 100 nM soluble human FcR
T6 construct: also called FcγRI; CD64
T6 sequence (P12314 16-288 limits assumed): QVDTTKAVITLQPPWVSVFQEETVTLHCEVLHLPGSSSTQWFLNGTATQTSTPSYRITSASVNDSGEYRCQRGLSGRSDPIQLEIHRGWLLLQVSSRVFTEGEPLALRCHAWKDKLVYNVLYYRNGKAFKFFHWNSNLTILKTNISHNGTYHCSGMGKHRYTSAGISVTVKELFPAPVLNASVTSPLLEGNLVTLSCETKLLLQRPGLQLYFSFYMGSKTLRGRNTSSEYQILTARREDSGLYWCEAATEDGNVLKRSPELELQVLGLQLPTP
Description: as §3

[19] = molecular target: T7, soluble human FcgR2A H131 (human, UniProt P12318 36-218); experiment: as above
T7 construct: also called CD32A-H131
T7 sequence (looked up): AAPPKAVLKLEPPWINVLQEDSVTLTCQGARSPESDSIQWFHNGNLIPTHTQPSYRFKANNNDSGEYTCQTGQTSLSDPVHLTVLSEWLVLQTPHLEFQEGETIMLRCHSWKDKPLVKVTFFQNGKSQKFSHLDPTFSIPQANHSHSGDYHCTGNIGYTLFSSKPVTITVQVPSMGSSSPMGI
Description: as §3

[20] = molecular target: T8, soluble human FcgR2A R131 (human, UniProt P12318 36-218); experiment: as above
T8 construct: also called CD32A-R131
T8 sequence (looked up): T7 sequence (looked up) with H132R
Description: as §3

soluble human FcgR2B = molecular target: T9, soluble human FcgR2B (human, UniProt P31994 46-217); experiment: as above
T9 construct: also called CD32B
T9 sequence (looked up): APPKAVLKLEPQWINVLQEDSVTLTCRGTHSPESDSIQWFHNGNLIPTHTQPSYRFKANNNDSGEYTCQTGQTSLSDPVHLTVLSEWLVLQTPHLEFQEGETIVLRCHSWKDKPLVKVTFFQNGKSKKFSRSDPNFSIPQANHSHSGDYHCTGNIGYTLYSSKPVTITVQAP
Description: as §3

[21] = molecular target: T1, human SIRPA on human macrophages …; experiment: cell-based or functional assay; remark: listed apart in the source

Sequence of human SIRPA Q281A (V5-tagged library clone on HEK-293T cells) (P78324 31-504 Q281A): as the sequence (P78324 31-504 R282A) above, with Q251A, A252R counted along it

B1: 9C2 Fab (Fab, V domains shown)
VH: EFQLQQSGAELVKPGASVKISCKASGYSLTGYNMNWVKQSRGKSLEWIGNINPHYGSSTYNQNFKDKATLTVDKSSSAAYMQFNSLTSEDSAVYYCAREGYDGVFDYWGQGTTLTVSS
VL: QIVLSQSPAILSASPGEKVTMTCRASSSVSYMHWYQQKPGSSPKPWIYVTSNLASGVPTRFSGSGSGTSYSLTISRVEAEDAATYYCQQWSSNPRTFGGGTKLEIK
Binding Reactivity (% WT) [1]: 14.1 % WT
Binding Reactivity (% WT) [2]: 4.7 % WT
Binding Reactivity (% WT) [3]: 6.5 % WT
Binding Reactivity (% WT) [4]: 17.9 % WT
Binding Reactivity (% WT) [5]: 2.4 % WT
Binding Reactivity (% WT) [6]: 1.8 % WT
Binding Reactivity (% WT) [7]: 5.3 % WT
Binding Reactivity (% WT) [8]: 4.9 % WT
Binding Reactivity (% WT) [9]: 19 % WT
Binding Reactivity (% WT) [10]: 36.3 % WT

B3: 3F9-22 hIgG1 NSLF (antibody)
heavy: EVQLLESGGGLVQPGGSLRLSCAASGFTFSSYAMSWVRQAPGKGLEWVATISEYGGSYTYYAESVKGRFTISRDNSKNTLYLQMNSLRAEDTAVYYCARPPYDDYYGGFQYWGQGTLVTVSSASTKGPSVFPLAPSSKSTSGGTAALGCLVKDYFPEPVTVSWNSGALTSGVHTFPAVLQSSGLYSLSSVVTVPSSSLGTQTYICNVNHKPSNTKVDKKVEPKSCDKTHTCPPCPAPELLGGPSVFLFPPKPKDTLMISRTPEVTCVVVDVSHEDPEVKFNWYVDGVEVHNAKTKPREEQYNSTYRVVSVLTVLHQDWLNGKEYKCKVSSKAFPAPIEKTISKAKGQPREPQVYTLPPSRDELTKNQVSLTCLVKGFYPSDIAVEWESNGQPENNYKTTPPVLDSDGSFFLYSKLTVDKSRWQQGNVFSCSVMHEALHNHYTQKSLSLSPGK
light: DIQLTQSPSSLSASVGDRVTITCRASKSVSSGGYSYMHWYQQKPGKAPKLLIYLASNLESGVPSRFSGSGSGTDFTLTISSVQPEDFATYYCQHNRELPVTFGQGTKLEIKRTVAAPSVFIFPPSDEQLKSGTASVVCLLNNFYPREAKVQWKVDNALQSGNSQESVTEQDSKDSTYSLSSTLTLSKADYEKHKVYACEVTHQGLSSPVTKSFNRGEC
notes: also called 3F9-22 NSLF; 3F9-22NSLF
IC50 (nM), SIRPA downregulation on human monocyte-derived macrophages [15]: 0.0451 nM
Max % DR, SIRPA, human monocyte-derived macrophages [15]: 74.6%
EC50 (nM), phagocytosis of A375 cells by primary human macrophages [16]: 0.458 nM
Max, fold increase in phagocytosis over baseline activity [16]: 1.77 fold
binding result [17]: no binding (tested: 100 nM)
binding result [18]: no binding (tested: 100 nM)
binding result (soluble human FcgR1): binds
binding result [19]: binds
binding result [20]: binds
binding result (soluble human FcgR2B): binds

The next lines start with the values.

IC50 (read off the curve), SIRPA downregulation on primary human macrophages, Dnr 409 [11]: ~200 pM
EC50 [12]: 1060 pM
IC50 [13]: 3300 pM
Kd [14]: 19000 pM
koff [14]: 0.002 s⁻¹
kon [14]: 110000 M⁻¹ s⁻¹
B2: mAb 14.70.1 (antibody, human IgG4, V domains shown)
VH: EVQLLESGGGLVQPGGSLRLSCAASGFTFSSYAMSWVRQAPGKGLEWVSTISDYGGSYTYYADSVKGRFTISRDNSKNTLYLQMNSLRAEDTAVYYCAKPPYDDYYGGFAYWGQGTLVTVSS
VL: DIQMTQSPSSLSASVGDRVTITCRASKSVSSSGYSYMHWYQQKPGKAPKLLIYLASNLESGVPSRFSGSGSGTDFTLTISSLQPEDFATYYCQHNRELPCTFGQGTKLEIK
notes: also called h3F9 H1/L1; h3F9 IgG4

IC50 (read off the curve), SIRPA downregulation on primary human macrophages, Dnr. 517 [21]: ~100 pM
B4: 3F9-22 SELF (antibody, human IgG1, kappa)
heavy chain: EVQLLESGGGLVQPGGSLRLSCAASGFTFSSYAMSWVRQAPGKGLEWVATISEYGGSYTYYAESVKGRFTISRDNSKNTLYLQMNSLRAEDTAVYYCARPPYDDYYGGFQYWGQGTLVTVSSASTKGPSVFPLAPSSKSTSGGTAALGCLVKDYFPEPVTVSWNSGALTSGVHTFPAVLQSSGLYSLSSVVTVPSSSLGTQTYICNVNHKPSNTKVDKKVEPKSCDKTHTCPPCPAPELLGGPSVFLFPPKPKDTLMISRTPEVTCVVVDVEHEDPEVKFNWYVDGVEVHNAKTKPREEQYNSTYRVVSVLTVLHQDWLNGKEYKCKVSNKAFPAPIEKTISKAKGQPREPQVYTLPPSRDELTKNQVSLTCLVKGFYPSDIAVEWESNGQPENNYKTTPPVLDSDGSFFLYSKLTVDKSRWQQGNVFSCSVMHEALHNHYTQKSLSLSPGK
light chain: B3 light
